Source: patent publication US20170267970A1, “Three-Dimensional Hydrogels that Support Growth of Physiologically Relevant Tissue and Methods of Use Thereof” (Whitehead Institute for Biomedical Research, priority 2016, published 2017)
Entries after “also recorded” stand apart in the source; their conditions may differ.

Assays:
[1] = test system: breast cancer samples cultured in 3D culture; experiment: Tamoxifen sensitivity of breast cancer samples in 3D culture (CellTiter-Glo on intact gels); format: cell-based, human; conditions: 48 hours of treatment; ER-positive cancer cells
Procedure: (§1) Shown are cell counts for each dose of drug following 48 hours of treatment. Cells were counted using CellTiter-Glo assay performed on intact gels. […] Both cultures were grown in hydrogel culture for nine days with 40 ng/mL nerve growth factor.

[2] = test system: mouse dorsal root ganglia neurons; experiment: Growth of dorsal root ganglia neurons in hydrogels with nerve growth factor; format: cell-based; conditions: 40 ng/mL NGF; nine days
Procedure: as §1
Mouse dorsal root ganglia were collected and either dissociated into single cells (FIG. 22A) or kept intact (FIG. 22B), and seeded into hydrogels containing no growth factors aside from 40 ng/mL nerve growth factor (NGF). They were cultured in 50% DMEM, 50% F12 growth media supplemented with 10% heat-inactivated fetal bovine serum and 40 ng/mL NGF. The cultures were grown for nine days, at which point they were fixed and stained for the expression of the sodium channel NaV1.7 (a marker of nociceptive neurons) and the DNA dye DAPI.

[3] = test system: breast tissues cultured in hydrogel scaffolds; experiment: Morphological response to hormones of breast tissues cultured in hydrogel scaffolds; format: cell-based, human
Description: FIG. 1A is a schematic representation of hydrogel assembly. FIG. 1B depicts representative bright-field images of tissue growth after ten days in Matrigel, polymerized collagen or the presently disclosed three-dimensional hydrogels (e.g., in the absence of BPE), alongside carmine stained mammary tissue sections from independent reduction mammoplasty patients. […] FIG. 1E depicts schematic and representative images showing the effect of pituitary hormones (0.4% bovine pituitary extract [BPE]) and 1 μg/mL recombinant human prolactin administration on the development of tissue structures grown in the presently disclosed three-dimensional hydrogels. BPE was added at seeding (D0) and prolactin at two weeks (N=4, 7 and 14, 1 resp). Bottom left images show representative architecture prior to the administration of prolactin. […] Error bars represent SEM.
Distance of the section from the surface of the structure is indicated. Scale bars are 200 μm.
We next assessed if breast tissues cultured in hydrogel scaffolds respond to steroid, pituitary, or lactogenic hormones, which are known to stimulate the development of mammary epithelial tissue in vivo.

CC/C(=C(\c1ccccc1)c1ccc(OCCN(C)C)cc1)c1ccccc1 [tamoxifen]
sensitivity / responsiveness to tamoxifen (cell counts) [1]: consistently responsive; also recorded: exhibit sensitivity

nerve growth factor: nerve growth factor, 40 ng/mL in hydrogel and medium
neuron survival and growth of axons and dendrites [2]: survive and grow new axons and dendrites

B1: prolactin: lactogenic hormone; 1 μg/mL recombinant human prolactin (protein, UniProt P01236 29-227, looked up)
Prolactin: LPICPGGAARCQVTLRDLFDRAVVLSHYIHNLSSEMFSEFDKRYTHGRGFITKAINSCHTSSLATPEDKEQAQQMNQKDFLSLIVSILRSWNEPLYHLVTEVRGMQEAPEAILSKAVEIEEQTKRLLEGMELIVSQVHPETKENEIYPVWSGLPSLQMADEESRLSAYYNLLHCLRRDSHKIDNYLKLLKCRIIHNNNC
increase in lobular volume ([3]; 1 μg/mL recombinant human prolactin added at two weeks, day 21): 4 fold | lipid droplets / lipid content (H&E, oil red O staining) ([3]; prolactin 1 μg/mL): formation of large lipid droplets; also recorded: lipid rich; also recorded: Lipid droplets can be seen | formation of milk-like opaque substance in lumens ([3]; prolactin after 2 weeks of estrogen and progesterone): promotes the formation of an opaque substance that fills the luminal space of the structures
